Reference: US20100196361A1, “Method of inhibition of vascular development using an antibody” (DYAX CORP., priority 2003, published 2010)
Residue numbers refer to the chain shown, from its start.

T1: human Tie1 Fc (Homo sapiens, UniProt P35590)
T1 construct: selected against the Tie1 extracellular domain fused to human Fc or to a histidine purification tag
T1 sequence (P35590 22-759 limits assumed): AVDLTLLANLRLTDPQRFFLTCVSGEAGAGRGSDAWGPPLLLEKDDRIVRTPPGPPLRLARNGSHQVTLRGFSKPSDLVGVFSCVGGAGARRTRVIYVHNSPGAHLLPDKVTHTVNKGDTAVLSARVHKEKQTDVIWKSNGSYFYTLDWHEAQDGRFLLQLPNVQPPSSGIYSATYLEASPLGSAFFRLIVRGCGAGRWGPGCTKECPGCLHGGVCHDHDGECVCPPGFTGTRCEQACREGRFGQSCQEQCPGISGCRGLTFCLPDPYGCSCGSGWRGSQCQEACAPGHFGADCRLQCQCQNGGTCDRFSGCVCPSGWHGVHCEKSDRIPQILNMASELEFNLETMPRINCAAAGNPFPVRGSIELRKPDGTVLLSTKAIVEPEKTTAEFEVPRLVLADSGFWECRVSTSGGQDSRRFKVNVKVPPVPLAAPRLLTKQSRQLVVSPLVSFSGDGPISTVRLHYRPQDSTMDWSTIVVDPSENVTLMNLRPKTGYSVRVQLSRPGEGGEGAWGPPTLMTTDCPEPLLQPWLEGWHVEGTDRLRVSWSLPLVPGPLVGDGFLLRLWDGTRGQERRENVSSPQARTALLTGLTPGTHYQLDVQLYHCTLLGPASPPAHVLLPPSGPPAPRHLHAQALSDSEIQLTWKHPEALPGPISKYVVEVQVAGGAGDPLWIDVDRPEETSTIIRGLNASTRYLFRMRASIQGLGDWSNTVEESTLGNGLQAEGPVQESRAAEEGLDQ

B1: E3: human anti-Tie1 antibody from phage Fab library, reformatted as IgG; HC variable SEQ ID NO:114, LC variable SEQ ID NO:116 (antibody, V domains shown)
VH: EVQLLESGGGLVQPGGSLRLSCAASGFTFSMYGMVWVRQAPGKGLEWVSVISPSGGNTGYADSVKGRFTISRDNSKNTLYLQVNSLRAEDTAVYYCARAPRGYSYGYYYWGQGTLVTVSSASTKGPSVFPLAPSSKSTSGG
VL: DIQMTQSPLSLSASVGDRVTITCRASQGIGHYLAWYQQKPGKVPKLLIYTASTLQSGVPSRFSGSGSGTDFTLTINSLQPEDVATYYCQQFNSYPHTFGQGTRLDIK
modifications: IgG constant regions; Synthetically generated peptide
B2: germlined E3 Fab: soluble Fab of E3 with LC framework regions germlined to DPK4; LC variable SEQ ID NO:159 (antibody, V domains shown)
VH: B1 VH
VL: B1 VL with L9S, N76S, D105E
B3: parental E3 Fab: soluble Fab fragment of the parental E3 anti-Tie1 antibody (antibody, V domains shown)
VH: B1 VH
VL: B1 VL
B4: DX-2210: E3 antibody in which the light chain has been germlined (antibody, V domains shown)
VH: B1 VH
VL: B1 VL with L9S, N76S, D105E

Columns and labels:
human Tie1 Fc [1] = molecular target: T1, human Tie1 Fc; experiment: BIAcore, Tie1 Fc over IgG coated on CM5 chip; assay type: binding; conditions: IgG immobilised; Human Tie1 Fc analyte
Procedure: The germlined E3 IgG1 stock solution 0.63 mg/ml was diluted 1/50 in a buffer of pH4.5 and the parental E3 IgG1 stock solution 0.56 mg/ml (2143-001) was diluted 1/50 in a buffer of pH 4.5. The IgG were directly coated onto a CM5 chip. The surface of the chips was activated with a 7 minute pulse of 0.05M NHS/0.2M EDC and the IgG was flowed over until 780RU germlined E3-IgG and 728 non germlined E3 IgG was coated onto the surface. All flow cells were subsequently deactivated with a 7 minute pulse of 1M ethanolamine hydrochloride pH 8.5. All analysis was performed in HBS buffer. Purified recombinant human Tie1 Fc was diluted 1/28.7 in HBS to obtain a 400 nM stock solution. Serial dilutions were made to obtain 200 nM, 100 nM, 50 nM and 25 nM Tie1 Fc stocks. For analysis of the association phase samples were injected at 30 μl/min for 8.3 minutes using kinject program. This was followed by a 40 minutes dissociation phase. Any antigen remaining associated to the surface was stripped from the IgG surface at a flow of 50 μl/min with two injections of 10 mM glycine pH 1.5 for 30 seconds. All samples were run and analyzed in duplicate
(§1) Sensorgrams were analyzed using the simultaneous ka/kd fitting program with 1:1 model in the BIAEVALUATION™ software 3.1.

human Tie1 Fc [2] = molecular target: T1, human Tie1 Fc; experiment: BIAcore, Fab over biotinylated Tie1-Fc on streptavidin chip; assay type: binding; conditions: Fab analyte; for kon: 830 RU
Procedure: Recombinant purified human Tie1-Fc antigen (Stock 2.45 mg/ml) was biotinylated using the EZ-link Sulfo-NHS-SS-Biotin (Pierce, Cat. 21331). The reaction was performed for 2 hours on ice in 50 mM sodium carbonate buffer, pH 9.6, in the presence of a 5-fold molar excess of biotinylating agent and was stopped by the addition of Tris-HCl, pH 7.5 (50 mM final concentration) followed by a 1-hour incubation on ice. Samples were then dialyzed against PBS. The antigen was then diluted 1/100 fold in HBS and was then captured onto a streptavidin chip. This was coated to a density of 830RU (resonance units). All analysis was performed in HBS buffer. The parental Fab E3 and germlined E3 Fab were prepared as described above. A stock solution of 0.587 mg/ml (11740 nM) was diluted 1/587 in HBS+BSA to obtain a stock of 20 nM and the germlined Fab E3 0.025 mg/ml (500 nM) was diluted 1/25 in HBS+BSA to obtain a stock of 20 nM. Serial dilutions were made of each Fab preparation to obtain 10 nM, 5 nM, 2.5 nM, and 1.25 nM solutions. For the association phase samples were injected at 30 μl/min for 4 minutes using kinject program. This was followed by a 10 minutes dissociation phase, any remaining sample was stripped from the Tie1 Fc surface at a flow of 50 μl/min with a single injection of 5 mM NaOH+1M NaCl for 18 seconds. All samples were run and analyzed in duplicate.
as §1

Molecule | koff (human Tie1 Fc [1]) | kon (human Tie1 Fc [1]) | koff (human Tie1 Fc [2]) | kon (human Tie1 Fc [2])
B1 | 3.61e-05 s⁻¹ | 6190 M⁻¹ s⁻¹ |  | 
B2 |  |  | 0.00102 s⁻¹ | 300000 M⁻¹ s⁻¹
B3 |  |  | 0.00061 s⁻¹ | 300000 M⁻¹ s⁻¹
B4 | 3.67e-05 s⁻¹ | 7090 M⁻¹ s⁻¹ |  | 
